# Test results reported in paper doi:10.1101/369454.
# Legend:
# [1] = target: E81C V151C Ps18.1 (Ps_(CT-ACD)), reduced (Pisum sativum) (UniProt P19243); experiment: dynamic light scattering
# [2] = target: Ps18.1, cytosolic class-I small heat-shock protein from Pisum sativum, wild type (Pisum sativum) (UniProt P19243); experiment: dynamic light scattering
# [3] = target: Ps18.1, cytosolic class-I small heat-shock protein from Pisum sativum, wild type (Pisum sativum) (UniProt P19243); experiment: SAXS
# [4] = target: E74C V144C Ta16.9 (Ta_(CT-ACD)), reduced (wheat (Triticum aestivum)) (UniProt Q41560); experiment: dynamic light scattering
# [5] = target: E74C V144C Ta16.9 (Ta_(CT-ACD)), reduced (wheat (Triticum aestivum)) (UniProt Q41560); experiment: native MS
# [6] = target: K49C W96C Ta16.9 (Ta_(dimer)), reduced (wheat (Triticum aestivum)) (UniProt Q41560); experiment: dynamic light scattering
# [7] = target: K49C W96C Ta16.9 (Ta_(dimer)), oxidized: disulfide bonded at the dimeric interface (wheat (Triticum aestivum)) (UniProt Q41560); experiment: dynamic light scattering
# [8] = target: K49C W96C Ta16.9 (Ta_(dimer)), oxidized: disulfide bonded at the dimeric interface (wheat (Triticum aestivum)) (UniProt Q41560); experiment: SEC
# [9] = target: K49C W96C Ta16.9 (Ta_(dimer)), oxidized: disulfide bonded at the dimeric interface (wheat (Triticum aestivum)) (UniProt Q41560); experiment: cross-linking
substance,measurement,setting,value
"E81C V151C Ps18.1 (Ps_(CT-ACD)), reduced (from UniProt P19243 1-158) (natural protein)",stoichiometry N,[1],12
"Ps18.1, cytosolic class-I small heat-shock protein from Pisum sativum, wild type (from UniProt P19243 1-158) (natural protein)",stoichiometry N,[2],12
same,stoichiometry N,[3],12
"E74C V144C Ta16.9 (Ta_(CT-ACD)), reduced (from UniProt Q41560 1-151) (natural protein)",stoichiometry N,[4],12
same,stoichiometry N,[5],12
"K49C W96C Ta16.9 (Ta_(dimer)), reduced (from UniProt Q41560 1-151) (natural protein)",stoichiometry N,[6],12
"K49C W96C Ta16.9 (Ta_(dimer)), oxidized: disulfide bonded at the dimeric interface (from UniProt Q41560 1-151) (natural protein)",stoichiometry N,[7],12
same,stoichiometry N,[8],12
same,size of the disulfide-linked covalent unit,[9],2 chains
